Experimental data from US20190365916A1 (Bayer, published 2019).
Where a chain is given by its changes, count along the chain named.

T1: receptor protein CXCR5 (CD185) (human, UniProt P32302 1-372)
T1 sequence: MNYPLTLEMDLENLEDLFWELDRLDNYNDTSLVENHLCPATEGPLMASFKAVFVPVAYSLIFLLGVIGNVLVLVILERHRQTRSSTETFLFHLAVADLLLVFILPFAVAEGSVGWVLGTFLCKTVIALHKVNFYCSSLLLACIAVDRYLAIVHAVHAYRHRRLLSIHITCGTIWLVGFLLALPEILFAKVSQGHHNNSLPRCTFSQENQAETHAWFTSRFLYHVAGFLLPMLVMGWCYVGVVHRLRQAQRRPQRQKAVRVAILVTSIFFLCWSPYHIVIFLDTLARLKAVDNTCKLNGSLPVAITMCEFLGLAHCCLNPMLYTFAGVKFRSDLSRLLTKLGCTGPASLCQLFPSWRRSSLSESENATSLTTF

B1: anti-CXCR5 antibody TPP-9574 (antibody, human IgG1, kappa, V domains shown)
VH: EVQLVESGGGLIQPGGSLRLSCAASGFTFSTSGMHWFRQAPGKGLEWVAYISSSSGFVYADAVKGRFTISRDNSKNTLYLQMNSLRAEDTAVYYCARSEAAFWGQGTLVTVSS
VL: DIVMTQSPLSLPVTPGEPASISCRSQKSRLSRMGITPLNWYLQKPGQSPQLLIYRMSNLASGVPDRFSGSGSGTDFTLKISRVEAEDVGVYYCAQFLEYPPTFGQGTKLEIKR
notes: Humanized anti-CXCR5 IgG; In the internalization assays it carried CypHer 5E dye on lysines
B2: anti-CXCR5 antibody TPP-9580 (antibody, human IgG1, kappa, V domains shown)
VH: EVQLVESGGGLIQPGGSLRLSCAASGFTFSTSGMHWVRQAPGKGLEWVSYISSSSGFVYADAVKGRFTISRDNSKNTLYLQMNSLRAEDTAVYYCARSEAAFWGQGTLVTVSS
VL: B1 VL
notes: as for B1
B3: anti-CXCR5 antibody TPP-9024 (antibody, human IgG1, kappa, V domains shown)
VH: EVQLVESGGGLVQPGKSLKLSCSASGFTFSTSGMHWFRQAPGKGLDWVAYISSSSGFVYADAVKGRFTISRDNAQNTLYLQLNSLKSEDTAIYYCARSEAAFWGQGTLVTVSS
VL: DIVLTQAPRSVSVTPGESASISCRSNKSRLSRMGITPLNWYLQKPGKSPQLLIYRMSNLASGVPDRFSGSGSETDFTLKISKVETEDVGVYYCAQFLEYPPTFGSGTKLEIKR
notes: In the internalization assays it carried CypHer 5E dye on lysines
B4: anti-CD123 antibody TPP-8987 (antibody, human IgG1, kappa, V domains shown)
VH: QVQLVQSGAEVKKPGSSVKVSCKASGGTFSDYYMKWVRQAPGQGLEWMGDIIPSNGATFYNQKFKGQVTITADESTSTAYMELSSLRSEDTAVYYCARSHLLRASWFAYWGQGTLVTVSS
VL: DIVMTQSPDSLAVSLGERATINCESSQSVLNSGNQKNYLTWYQQKPGQPPKLLIYWASTRESGVPDRFSGSGSGTDFTLTISSLQAEDVAVYYCQNDYSYPYTFGQGTKLEIKR
notes: Humanized anti-CD123 IgG; In the internalization assays it carried CypHer 5E dye on lysines
B5: anti-CD123 antibody TPP-9476 (antibody, human IgG1, kappa, V domains shown)
VH: B4 VH with Q67R
VL: B4 VL
notes: as for B4
B6: anti-CD123 antibody TPP-8988 (antibody, human IgG1, kappa, V domains shown)
VH: EVQLLESGGGLVQPGGSLRLSCAVSDYSITSGYYWNWIRQAPGKKLEWMGYISYDGSNNYNPSLKNGRITISRDTSKNTFYLQMNSLRAEDTAVYYCARGEGFYFDSWGQGTLVTVSS
VL: EIVLTQSPGTLSLSPGERATLSCKSSQSLFFGSTQKNYLAWYQQKPGQAPRLLIYWASTRESGIPDRFSGSGSGTDFTLTISRLEPEDFAVYYCQQYYNYPWTFGQGTKLEIKR
notes: as for B4
B7: reference ADC R1x-9574 (anti-CXCR5 TPP-9574 coupled with Intermediate F104) (antibody, human IgG1, kappa, V domains shown)
VH: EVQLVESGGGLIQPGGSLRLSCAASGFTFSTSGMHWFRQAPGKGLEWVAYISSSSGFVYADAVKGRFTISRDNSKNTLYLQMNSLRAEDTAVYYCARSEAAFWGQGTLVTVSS
VL: B1 VL
modifications: reference KSP inhibitor toxophore-linker (from Intermediate F104) on sulfur atoms of cysteine side chains of the partially reduced antibody; DAR 3.9; positions not given
B8: reference ADC R1x-9580 (anti-CXCR5 TPP-9580 coupled with Intermediate F104) (antibody, human IgG1, kappa, V domains shown)
VH: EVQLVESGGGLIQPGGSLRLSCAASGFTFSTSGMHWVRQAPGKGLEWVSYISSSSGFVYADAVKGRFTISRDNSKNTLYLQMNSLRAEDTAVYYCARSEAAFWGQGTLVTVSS
VL: B1 VL
modifications: reference KSP inhibitor toxophore-linker (from Intermediate F104) on sulfur atoms of cysteine side chains of the partially reduced antibody; DAR 3.7; positions not given
B9: reference ADC R1x-9024 (anti-CXCR5 TPP-9024 coupled with Intermediate F104) (antibody, human IgG1, kappa, V domains shown)
VH: B3 VH
VL: B3 VL
modifications: reference KSP inhibitor toxophore-linker (from Intermediate F104) on sulfur atoms of cysteine side chains of the partially reduced antibody; DAR 3.7; positions not given
B10: reference ADC R1c-8987 (anti-CD123 TPP-8987 coupled with Intermediate F104) (antibody, human IgG1, kappa, V domains shown)
VH: B4 VH
VL: B4 VL
modifications: reference KSP inhibitor toxophore-linker (from Intermediate F104) on sulfur atoms of cysteine side chains of the partially reduced antibody; DAR 1.5; positions not given
B11: reference ADC R1c-9476 (anti-CD123 TPP-9476 coupled with Intermediate F104) (antibody, human IgG1, kappa, V domains shown)
VH: B4 VH with Q67R
VL: B4 VL
modifications: reference KSP inhibitor toxophore-linker (from Intermediate F104) on sulfur atoms of cysteine side chains of the partially reduced antibody; DAR 3.1; positions not given
B12: reference ADC R1c-8988 (anti-CD123 TPP-8988 coupled with Intermediate F104) (antibody, human IgG1, kappa, V domains shown)
VH: B6 VH
VL: B6 VL
modifications: reference KSP inhibitor toxophore-linker (from Intermediate F104) on sulfur atoms of cysteine side chains of the partially reduced antibody; DAR 3.4; positions not given
B13: ADC Example 1x-9574 (anti-CXCR5 TPP-9574 coupled with Intermediate F325) (antibody, human IgG1, kappa, V domains shown)
VH: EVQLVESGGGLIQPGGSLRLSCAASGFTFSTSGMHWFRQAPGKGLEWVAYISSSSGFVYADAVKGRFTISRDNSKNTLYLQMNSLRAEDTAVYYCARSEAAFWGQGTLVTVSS
VL: B1 VL
modifications: KSP inhibitor toxophore-linker of formula (I) (from Intermediate F325) on sulfur atoms of cysteine side chains of the partially reduced antibody; DAR 4.1; positions not given
B14: ADC Example 1x-9580 (anti-CXCR5 TPP-9580 coupled with Intermediate F325) (antibody, human IgG1, kappa, V domains shown)
VH: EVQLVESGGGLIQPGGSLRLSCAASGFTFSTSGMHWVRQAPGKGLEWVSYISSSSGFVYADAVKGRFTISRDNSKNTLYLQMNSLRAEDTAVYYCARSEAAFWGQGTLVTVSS
VL: B1 VL
modifications: KSP inhibitor toxophore-linker of formula (I) (from Intermediate F325) on sulfur atoms of cysteine side chains of the partially reduced antibody; DAR 4.2; positions not given
B15: ADC Example 1x-9024 (anti-CXCR5 TPP-9024 coupled with Intermediate F325) (antibody, human IgG1, kappa, V domains shown)
VH: B3 VH
VL: B3 VL
modifications: KSP inhibitor toxophore-linker of formula (I) (from Intermediate F325) on sulfur atoms of cysteine side chains of the partially reduced antibody; DAR 3.8; positions not given
B16: ADC Example 1c-8987 (anti-CD123 TPP-8987 coupled with Intermediate F325) (antibody, human IgG1, kappa, V domains shown)
VH: B4 VH
VL: B4 VL
modifications: KSP inhibitor toxophore-linker of formula (I) (from Intermediate F325) on sulfur atoms of cysteine side chains of the partially reduced antibody; DAR 3.7; positions not given
B17: ADC Example 1c-9476 (anti-CD123 TPP-9476 coupled with Intermediate F325) (antibody, human IgG1, kappa, V domains shown)
VH: B4 VH with Q67R
VL: B4 VL
modifications: KSP inhibitor toxophore-linker of formula (I) (from Intermediate F325) on sulfur atoms of cysteine side chains of the partially reduced antibody; DAR 3.1; positions not given
B18: ADC Example 1c-8988 (anti-CD123 TPP-8988 coupled with Intermediate F325) (antibody, human IgG1, kappa, V domains shown)
VH: B6 VH
VL: B6 VL
modifications: KSP inhibitor toxophore-linker of formula (I) (from Intermediate F325) on sulfur atoms of cysteine side chains of the partially reduced antibody; DAR 3.5; positions not given

Target: T1, receptor protein CXCR5 (CD185)
Experiment: cell binding assay, CypHer 5E-labelled against unlabelled antibody

| Binder | binding result |
| --- | --- |
| B1 | binds |
| B2 | binds |
| B3 | binds |

Target: T2, surface receptor CD123 (IL3RA) (human, UniProt P26951 19-378)
T2 construct: also called IL-3Rα
Experiment: as above

T2 sequence (P26951 19-378 limits assumed): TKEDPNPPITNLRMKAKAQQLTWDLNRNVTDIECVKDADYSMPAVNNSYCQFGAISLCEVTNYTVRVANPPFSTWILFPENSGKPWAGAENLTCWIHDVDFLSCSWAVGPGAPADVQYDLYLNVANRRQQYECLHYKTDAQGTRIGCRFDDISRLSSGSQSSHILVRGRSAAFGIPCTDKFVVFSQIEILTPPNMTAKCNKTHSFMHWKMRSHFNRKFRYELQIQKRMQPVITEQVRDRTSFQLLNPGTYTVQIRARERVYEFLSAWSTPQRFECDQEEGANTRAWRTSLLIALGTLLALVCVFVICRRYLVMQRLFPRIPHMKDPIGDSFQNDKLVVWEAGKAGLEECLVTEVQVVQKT

| Binder | binding result |
| --- | --- |
| B4 | binds |
| B5 | binds |
| B6 | binds |

Target: T1, receptor protein CXCR5 (CD185)
Experiment: cell-based or functional assay

| Binder | IC50 [M] of growth inhibition, MTT assay, Rec-1 cells (CXCR5-positive) [M] |
| --- | --- |
| B7 | 2.62e-10 |
| B8 | 7.16e-11 |
| B9 | 1.84e-10 |

Target: T2, surface receptor CD123 (IL3RA)
Experiment: cell-based or functional assay

| Binder | IC50 [M] of growth inhibition, MTT assay, MOLM-13 cells (CD123-positive) [M] | IC50 [M] of growth inhibition, MTT assay, MV-4-11 cells (CD123-positive) [M] |
| --- | --- | --- |
| B10 | 7.57e-08 | 1.33e-07 |
| B11 | 3.04e-10 | 5.3e-09 |
| B12 | 4.26e-09 | 3.27e-08 |

Target: T1, receptor protein CXCR5 (CD185)
Experiment: cell-based or functional assay
Remark: another data set of the same source

| Binder | IC50 [M] of growth inhibition, MTT assay, Rec-1 cells (CXCR5-positive) [M] |
| --- | --- |
| B13 | 2.94e-11 |
| B14 | 2.78e-09 |
| B15 | 1.34e-10 |

Target: T2, surface receptor CD123 (IL3RA)
Experiment: cell-based or functional assay
Remark: another data set of the same source

| Binder | IC50 [M] of growth inhibition, MTT assay, MOLM-13 cells (CD123-positive) [M] | IC50 [M] of growth inhibition, MTT assay, MV-4-11 cells (CD123-positive) [M] |
| --- | --- | --- |
| B16 | 2.1e-10 | 1.26e-09 |
| B17 | 2.85e-10 | 2.78e-09 |
| B18 | 3.02e-11 | 2.94e-08 |
